This is an account of results in patent publication US20230322857A1, “RECOMBINANTLY ENGINEERED POLYPEPTIDES CAPABLE OF RECYCLING NONCANONICAL COFACTORS” (The Regents of the University of California, priority 2022, published 2023).

What all share (format): biochemical
Series [1] can be described thus: Steady-state kinetics of TS-PTDH variants with NAD^+. The conditions noted are these: 100 mM MOPS, pH 7.25, 10 mM sodium phosphite, varied cofactor concentrations; n = 3. The method, then:
(§1) Purification and Characterization of TS-PTDH Variants. The E. coli BL21(DE3) strains harboring pQElac plasmids encoding the TS-PTDH or TS-PTDH variants were grown in 2×YT media with kanamycin and ampicillin at 37° C. The IPTG-inducible expression, Ni-affinity purification, and protein concentration determination was conducted as described above.
(§2) The steady-state kinetic parameters toward the coenzymes were measured by spiking purified protein into a 100 μL reaction mixture containing 100 mM MOPS, pH 7.25, 10 mM sodium Pt, and varied cofactor concentrations from 0.02 mM to 5 mM at 25° C. The kinetic parameters were measured by monitoring the […] of reduced coenzyme at 340 nm. Data were fitted to the Michaelis-Menten equation to generate estimates of KM and kcat values.

The nature of series [2]: Steady-state kinetics of TS-PTDH variants with NADP^+. Conditions: 100 mM MOPS, pH 7.25, 10 mM sodium phosphite, varied cofactor concentrations; n = 3. The method, then: as §1, §2
Series [3] is described as follows: Steady-state kinetics of TS-PTDH variants with NMN^+. The method, then:
as §1, §2

Setting [4] is: 100 mM MOPS, pH 7.25, 10 mM sodium phosphite, varied cofactor concentrations, n = 3.

B1: LY-6: phosphite dehydrogenase variant with A155N, E175Q, A176S (SEQ ID NO:4) (protein)
chain: MLPKLVITHRVHEEILQLLAPHCELITNQTDSTLTREEILRRCRDAQAMMAFMPDRVDADFLQACPELRVIGCALKGFDNFDVDACTARGVWLTFVPDLLTVPTAELAIGLAVGLGRHLRAADAFVRSGKFRGWQPRFYGTGLDNATVGFLGMGNIGLAMADRLQGWGATLQYHQSKALDTQTEQRLGLRQVACSELFASSDFILLALPLNADTLHLVNAELLALVRPGALLVNPCRGSVVDEAAVLAALERGQLGGYAADVFEMEDWARADRPQQIDPALLAHPNTLFTPHIGSAVRAVRLEIERCAAQNILQALAGERPINAVNRLPKANPAAD
Consider B1, for which, in series [1], the Michaelis constant (Km) turned out to be 110 ± 10 µM and the “NAD^+ kcat” value is 1.04 ± 0.08 s⁻¹. For the same molecule, in series [2], the Km came to 50 ± 10 µM and the “NADP^+ kcat” value is 0.95 ± 0.05 s⁻¹. Besides, in series [3] (setting [4]), the Km came out at 1100 ± 100 µM and the “NMN^+ kcat” value stood at 0.18 ± 0.01 s⁻¹. For the same molecule, the “increased catalytic efficiency (kcat/Km) for NMN^+ compared to TS-PTDH A155N” value in series [3] (vs parent enzyme TS-PTDH A155N) is listed as roughly 17 fold.

In general, Km refers to the substrate concentration at which the rate is half of its maximum.
